No end group written: not given here.
T1: Apc2, cullin subunit in the S. cerevisiae APC/C (S. cerevisiae, UniProt Q12440 1-853)
T1 sequence: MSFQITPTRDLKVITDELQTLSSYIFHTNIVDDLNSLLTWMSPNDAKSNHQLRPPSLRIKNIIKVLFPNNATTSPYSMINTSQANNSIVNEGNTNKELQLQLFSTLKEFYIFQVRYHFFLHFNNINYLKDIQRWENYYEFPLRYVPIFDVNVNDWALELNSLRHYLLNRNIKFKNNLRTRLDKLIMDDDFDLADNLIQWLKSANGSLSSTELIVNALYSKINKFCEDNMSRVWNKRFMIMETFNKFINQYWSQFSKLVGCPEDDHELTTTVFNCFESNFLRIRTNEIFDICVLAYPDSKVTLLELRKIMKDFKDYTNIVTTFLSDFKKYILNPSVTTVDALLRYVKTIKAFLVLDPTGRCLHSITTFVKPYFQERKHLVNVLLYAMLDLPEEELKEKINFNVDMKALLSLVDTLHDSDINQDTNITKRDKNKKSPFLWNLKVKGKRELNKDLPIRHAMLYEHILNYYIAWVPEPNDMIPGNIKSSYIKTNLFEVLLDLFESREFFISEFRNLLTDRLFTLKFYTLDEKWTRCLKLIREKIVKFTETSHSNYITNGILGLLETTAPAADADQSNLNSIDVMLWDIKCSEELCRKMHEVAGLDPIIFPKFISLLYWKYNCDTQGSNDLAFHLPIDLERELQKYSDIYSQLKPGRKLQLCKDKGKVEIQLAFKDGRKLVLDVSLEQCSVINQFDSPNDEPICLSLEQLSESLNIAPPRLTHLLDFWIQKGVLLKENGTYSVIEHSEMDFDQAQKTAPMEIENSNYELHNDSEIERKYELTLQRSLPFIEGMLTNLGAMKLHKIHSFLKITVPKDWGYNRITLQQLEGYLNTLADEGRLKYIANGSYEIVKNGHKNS

B1: 18-residue D-box peptide modelled on cyclin B (S. pombe Cdc13) (peptide)
peptide: NVPKKRHALDDVSNFHNK
modifications: not fully specified
B2: Apc3/Cdc27, TPR subunit in the S. cerevisiae APC/C (natural protein)
chain: MAVNPELAPFTLSRGIPSFDDQALSTIIQLQDCIQQAIQQLNYSTAEFLAELLYAECSILDKSSVYWSDAVYLYALSLFLNKSYHTAFQISKEFKEYHLGIAYIFGRCALQLSQGVNEAILTLLSIINVFSSNSSNTRINMVLNSNLVHIPDLATLNCLLGNLYMKLDHSKEGAFYHSEALAINPYLWESYEAICKMRATVDLKRVFFDIAGKKSNSHNNNAASSFPSTSLSHFEPRSQPSLYSKTNKNGNNNINNNVNTLFQSSNSPPSTSASSFSSIQHFSRSQQQQANTSIRTCQNKNTQTPKNPAINSKTSSALPNNISMNLVSPSSKQPTISSLAKVYNRNKLLTTPPSKLLNNDRNHQNNNNNNNNNNNNNNNNNNNNNNNNIINKTTFKTPRNLYSSTGRLTTSKKNPRSLIISNSILTSDYSITLPEIMYNFALILRSSSQYNSFKAIRLFESQIPSHIKDTMPWCLVQLGKLHFEIINYDMSLKYFNRLKDLQPARVKDMEIFSTLLWHLHDKVKSSNLANGLMDTMPNKPETWCCIGNLLSLQKDHDAAIKAFEKATQLDPNFAYAYTLQGHEHSSNDSSDSAKTCYRKALACDPQHYNAYYGLGTSAMKLGQYEEALLYFEKARSINPVNVVLICCCGGSLEKLGYKEKALQYYELACHLQPTSSLSKYKMGQLLYSMTRYNVALQTFEELVKLVPDDATAHYLLGQTYRIVGRKKDAIKELTVAMNLDPKGNQVIIDELQKCHMQE
B3: S. cerevisiae His6-Cdh1 (natural protein)
chain: MSTNLNPFMNNTPSSSPLKGSESKRVSKRPISSSSSASLLSSPSRRSRPSTVYGDRYIPSRTDIDFNSIVSISSMASVPALNPSSTEDQVEYQKERQAHETYNTLLKNELFGEMLSKDTVGSESSIDRIKNTRPSTRGNVHAENTTRHGYELERVSTPPPEAAGLEEFSPHSTPVTPRRLFTSQQDEITRPSSNSVRGASLLTYQQRKGRRLSAASLLQSQFFDSMSPVRPDSKQLLLSPGKQFRQIAKVPYRVLDAPSLADDFYYSLIDWSSTDVLAVALGKSIFLTDNNTGDVVHLCDTENEYTSLSWIGAGSHLAVGQANGLVEIYDVMKRKCIRTLSGHIDRVACLSWNNHVLTSGSRDHRILHRDVRMPDPFFETIESHTQEVCGLKWNVADNKLASGGNDNVVHVYEGTSKSPILTFDEHKAAVKAMAWSPHKRGVLATGGGTADRRLKIWNVNTSIKMSDIDSGSQICNMVWSKNTNELVTSHGYSKYNLTLWDCNSMDPIAILKGHSFRVLHLTLSNDGTTVVSGAGDETLRYWKLFDKPKAKVQPNSLIFDAFNQIR

Legend:
[1] = biological target: APC/C in complex with Cdh1 (APC/C^Cdh1), budding yeast (S. cerevisiae) (UniProt P53886)
S. cerevisiae His6-Cdh1 = biological target: B3; assay: cryo-EM structure
cryo-EM structure = biological target: the molecule itself; assay: cryo-EM structure
[2] = biological target: T1, Apc2, cullin subunit in the S. …; assay: cryo-EM structure
[3] = biological target: B2; assay: cryo-EM structure

B1 was tested, and the inhibition of APC/C^Cdh1 ubiquitylation of Clb2 by the peptide [1] was 0.1 mM and the binding result (S. cerevisiae His6-Cdh1) was “binds”.

B2: binds (cryo-EM structure).

B3: binds [2]; binds [3].
